Experimental data: patent US20240425830, “ENGINEERED CAS12I NUCLEASE, EFFECTOR PROTEIN AND USE THEREOF” (Institute of Zoology, Chinese Academy of Sciences, published 2024)
Substitutions are numbered along the chain they refer to.

T1: Cas12i2 wild-type
T1 chain: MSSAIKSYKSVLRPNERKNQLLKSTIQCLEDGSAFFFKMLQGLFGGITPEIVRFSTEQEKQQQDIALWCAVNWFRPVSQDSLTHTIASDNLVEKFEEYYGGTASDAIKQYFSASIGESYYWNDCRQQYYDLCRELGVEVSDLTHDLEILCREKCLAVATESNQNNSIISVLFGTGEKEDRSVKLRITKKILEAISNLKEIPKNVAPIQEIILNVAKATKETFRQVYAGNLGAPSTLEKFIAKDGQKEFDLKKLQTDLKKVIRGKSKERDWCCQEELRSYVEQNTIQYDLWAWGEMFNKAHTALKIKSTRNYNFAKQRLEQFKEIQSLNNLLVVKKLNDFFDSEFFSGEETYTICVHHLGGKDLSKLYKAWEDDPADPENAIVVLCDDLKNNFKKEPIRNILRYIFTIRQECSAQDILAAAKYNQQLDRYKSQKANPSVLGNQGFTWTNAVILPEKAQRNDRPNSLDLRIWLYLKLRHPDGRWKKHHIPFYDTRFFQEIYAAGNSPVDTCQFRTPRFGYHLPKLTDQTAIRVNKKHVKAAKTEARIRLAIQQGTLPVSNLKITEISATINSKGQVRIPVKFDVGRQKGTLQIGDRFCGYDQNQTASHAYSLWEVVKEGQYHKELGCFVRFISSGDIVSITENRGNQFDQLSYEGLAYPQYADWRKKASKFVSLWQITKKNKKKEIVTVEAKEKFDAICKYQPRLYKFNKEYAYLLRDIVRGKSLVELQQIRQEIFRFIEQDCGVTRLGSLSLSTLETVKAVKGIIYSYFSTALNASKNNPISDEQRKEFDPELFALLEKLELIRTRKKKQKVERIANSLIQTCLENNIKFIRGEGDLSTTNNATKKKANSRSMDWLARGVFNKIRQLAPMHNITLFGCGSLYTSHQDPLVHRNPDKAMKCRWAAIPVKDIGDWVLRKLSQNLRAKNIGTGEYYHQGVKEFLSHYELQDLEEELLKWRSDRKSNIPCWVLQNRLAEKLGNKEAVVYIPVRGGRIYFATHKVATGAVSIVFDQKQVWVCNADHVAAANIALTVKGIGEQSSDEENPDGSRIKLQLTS

T2: Cas12i2 E563R (E563R)
T2 chain: T1 chain with E563R

B1: crRNA RNF2-7 ; RNF2-7 target (ssRNA ; dsDNA)
RNA: AGAAAUCCGUCUUUCAUUGACGGUUCAACAUAUCCAAACAAAU
DNA 1: TTCAACATATCCAAACAAAT
DNA 2: ATTTGTTTGGATATGTTGAA
B2: crRNA CCR5-3 ; CCR5-3 target (ssRNA ; dsDNA)
RNA: AGAAAUCCGUCUUUCAUUGACGGAGGCCAAAGAAUUCCUGGAA
DNA 1: AGGCCAAAGAATTCCTGGAA
DNA 2: TTCCAGGAATTCTTTGGCCT

Columns and labels:
[1] = molecular target: T1, Cas12i2 wild-type; assay: cell_activity; HEK293T
Experimental: (§1) HEK293T cells were cultured in DMEM (Gibco) comprising 1% penicillin-streptomycin (Gibco) and 10% fetal calf serum (Gibco). Cells were seeded in 24-well cell culture dishes (Corning) for 16 hours until cell density reached 70%. By using Lipofectamine 3000 (Invitrogen), 600 ng of plasmid encoding Cas12i2 protein and 300 ng of plasmid encoding crRNA were transfected into each 24-well cell culture dish. After approximately 68 hours of transfection, HEK293T cells to be subjected to fluorescence-activated cell sorting (FACS) were digested with trypsin-EDTA (0.05%) (Gibco). Cell sorting was performed using MoFlo XDP (Beckman Coulter) with GFP channel.
(§2) FACS-sorted GFP-positive HEK293T cells were lysed with buffer L and incubated at 55° C. for 3 h and then at 95° C. for 10 min. PCR amplification of dsDNA fragments comprising target sites in different genomic sites was performed using corresponding primers. For targeted deep sequencing, cell lysate was directly used as a template to directly amplify the target site through barcoded PCR. PCR products were purified and pooled into several libraries for high-throughput sequencing. The frequency (%) of indels was analyzed using CRISPResso2 software by calculating the ratio of reads comprising indels. In this application, the index of indel frequency (%) was uniformly used to compare and analyze gene editing efficiency. Reads with less than 0.05% of complete reads are discarded.

[2] = molecular target: T2, Cas12i2 E563R; assay: cell_activity; HEK293T
Experimental: as §1, §2

| Binder | activity [1] [% indel] | activity [2] [% indel] |
| --- | --- | --- |
| B1 | 11.7 | 68.3 |
| B2 | 10.4 | 55.5 |
